From paper PMC10908828

Tests used:
[1] = target: human full-length RAF1 (residues 1-648) with C-terminal His6 (human) (UniProt P04049); test: mass photometry; purified RAF1-HSP90-CDC37 complex
[2] = target: insect HSP90 from Trichoplusia ni (Trichoplusia ni (endogenous in Tni-FNL cells)); test: mass photometry; purified RAF1-HSP90-CDC37 complex

- stoichiometry N [1]: 2
- stoichiometry N [2]: 2
Substance: insect HSP90 from Trichoplusia ni (natural protein)
